# From US20040106555, “Neurogenin3 and production of pancreatic islet cells” (published 2004)
# T1: E47 (UniProt P15923-2 P15923-2:1-651)
# T1 sequence: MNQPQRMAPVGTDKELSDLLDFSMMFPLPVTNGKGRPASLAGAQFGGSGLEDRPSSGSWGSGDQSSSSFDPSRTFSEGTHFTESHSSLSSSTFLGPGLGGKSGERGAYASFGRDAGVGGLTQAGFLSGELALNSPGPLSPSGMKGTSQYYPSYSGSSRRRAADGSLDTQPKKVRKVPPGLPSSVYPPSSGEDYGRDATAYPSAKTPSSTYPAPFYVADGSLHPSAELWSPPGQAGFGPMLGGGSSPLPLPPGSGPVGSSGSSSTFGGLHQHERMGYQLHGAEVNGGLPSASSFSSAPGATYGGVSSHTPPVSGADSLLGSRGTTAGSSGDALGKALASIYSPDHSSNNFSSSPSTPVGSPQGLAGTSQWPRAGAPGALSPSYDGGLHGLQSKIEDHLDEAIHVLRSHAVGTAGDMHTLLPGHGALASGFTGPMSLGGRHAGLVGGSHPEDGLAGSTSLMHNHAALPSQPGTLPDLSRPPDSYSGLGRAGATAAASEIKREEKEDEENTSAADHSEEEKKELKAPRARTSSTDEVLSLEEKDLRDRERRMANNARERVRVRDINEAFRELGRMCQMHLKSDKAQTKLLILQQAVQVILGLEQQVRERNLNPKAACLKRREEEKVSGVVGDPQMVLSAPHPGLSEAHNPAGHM
# T2: HNF3beta (FOXA2) (Rattus norvegicus, UniProt P32182 P32182:1-458)
# T2 sequence: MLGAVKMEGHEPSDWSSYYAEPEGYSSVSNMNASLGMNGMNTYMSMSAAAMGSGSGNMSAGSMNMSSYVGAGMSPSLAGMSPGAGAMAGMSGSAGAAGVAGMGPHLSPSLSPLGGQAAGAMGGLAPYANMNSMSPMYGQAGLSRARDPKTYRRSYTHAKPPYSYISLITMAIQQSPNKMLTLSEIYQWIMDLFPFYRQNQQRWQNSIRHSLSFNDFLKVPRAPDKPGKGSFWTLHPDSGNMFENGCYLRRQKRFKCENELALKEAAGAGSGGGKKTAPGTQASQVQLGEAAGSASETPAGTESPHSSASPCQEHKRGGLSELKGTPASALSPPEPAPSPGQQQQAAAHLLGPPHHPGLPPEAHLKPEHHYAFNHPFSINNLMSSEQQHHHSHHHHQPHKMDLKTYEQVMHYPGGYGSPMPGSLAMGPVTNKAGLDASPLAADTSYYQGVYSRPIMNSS
# B1: NEUROG3 E box (dsDNA)
# DNA 1: CTTTGTCCGGAATCCAGCTGTGCCCTGCGGGGGAG
# DNA 2: CTCCCCCGCAGGGCACAGCTGGATTCCGGACAAAG
# B2: H3-1 (ngn3 promoter proximal) (dsDNA)
# DNA 1: GATCTCTCGAGAGAGCAAACAGCGCGGCGG
# DNA 2: CCGCCGCGCTGTTTGCTCTCTCGAGAGATC
# B3: nkx2.2 E3 (dsDNA)
# DNA 1: TTATTACCGCTGAACATATGGCCAATATTTTGACT
# DNA 2: AGTCAAAATATTGGCCATATGTTCAGCGGTAATAA
# B4: H3-2 (ngn3 promoter distal) (dsDNA)
# DNA 1: TTATTATTATTTTAGCAAACACTGGAGACAG
# DNA 2: CTGTCTCCAGTGTTTGCTAAAATAATAATAA
# B5: PAX4 E box (dsDNA)
# DNA 1: TGTATAATTGTGAGCAGATGGCGGGGGCTGGCGGC
# DNA 2: GCCGCCAGCCCCCGCCATCTGCTCACAATTATACA
# B6: rat insulin I E2 (dsDNA)
# DNA 1: CTGCTTCATCAGGCCATCTGGCCCCTTGTTAATAA
# DNA 2: TTATTAACAAGGGGCCAGATGGCCTGATGAAGCAG
# Assays:
# E47 = target: T1, E47; assay: EMSA; comparable affinity on all four probes; conditions: tags: TNT reticulocyte lysate; chain copies: 2 inferred; label: 32P
# Experimental: (§1) FIGS. 23A-23B are photographs of electromobility shift assays (EMSAs) showing that bHLH factors bind pancreatic promoter E boxes. EMSA were used to test the ability of E47, neurogenin3 and neuroD 1 to bind to labeled, double stranded oligonucleotides containing the E box sequences from the rat insulin I and mouse nkx2.2 promoters (23A) or the human PAX4 and NEUROG3 promoters (23B). 1 μl of each in vitro-translated protein was incubated with the indicated probes, either individually or in the combination shown. Results are typical of experiments done on three occasions.
# (§2) Electromobility Shift Assays. Single stranded oligonucleotides were 5′-end labeled using (γ-32P) ATP and T4 polynucleotide kinase. An excess of complementary strand was then annealed to form a duplex strand that was column purified. EMSA buffers and electrophoresis conditions were as described above using 500 ng of poly(dIdC):poly(dIdC) per 10 ul binding mix. For in vitro produced protein, 1 μl of the 50 μl total reaction volume was used per binding mix.
# (§3) Oligonucleotides used were as follows (coding strand shown from each double stranded pair): NEUROG3 promoter E element, 5′-[…]-3′; rat insulin I promoter E2 element, 5′-[…]-3′; PAX4 promoter E element, 5′-[…]-3′; nkx2.2 promoter E3 element 5′-[…]-3′. EMSA results are representative of those seen on at least 3 occasions.
# HNF3beta (FOXA2) [1] = target: T2, HNF3beta (FOXA2); assay: EMSA; high affinity; conditions: tags: pGEM-1 ratHNF3beta, TNT lysate; label: 32P
# Excerpt: (§4) Single-stranded oligonucleotides corresponding to the sequences in the human ngn3 promoter were 5′ end-labeled with [γ-³²P]-ATP using T4 polynucleotide kinase. The labeled oligonucleotides were column-purified and annealed to an excess of the complementary strand. For HNF3β and HNF 1α binding experiments, EMSA buffers and electrophoresis conditions were as previously described (Mirmira et al. J Biol Chem 275:14743-51, 2000). For HES-1 binding experiments, conditions were the same except that the poly(dI-dC) concentration was decreased to 15 ng/ul. One μl of the in vitro reaction mixture or 2 ug of nuclear extracts or 400 ng of GST-fused Hes1 protein were used for each binding reaction. When using antibodies, 1 μl of each antibody was incubated with the binding mix for 15 min at room temperature prior to gel-electrophoresis. The antisera against HNF-3α, -3β, and -3γ were a generous gift from R. Costa (University of Illinois) and the HES-1 antiserum was a generous gift from Y. Jan (University of California San Francisco). The anti-HNF-1α antiserum was purchased from Santa Cruz Biotechnology, Inc. […]
# NeuroD1 = NeuroD1 (UniProt Q60867 Q60867:1-357); assay: EMSA; homodimer; conditions: tags: TNT reticulocyte lysate; chain copies: 2 stated; label: 32P
# Chain of NeuroD1 (Q60867 whole entry, one chain of several): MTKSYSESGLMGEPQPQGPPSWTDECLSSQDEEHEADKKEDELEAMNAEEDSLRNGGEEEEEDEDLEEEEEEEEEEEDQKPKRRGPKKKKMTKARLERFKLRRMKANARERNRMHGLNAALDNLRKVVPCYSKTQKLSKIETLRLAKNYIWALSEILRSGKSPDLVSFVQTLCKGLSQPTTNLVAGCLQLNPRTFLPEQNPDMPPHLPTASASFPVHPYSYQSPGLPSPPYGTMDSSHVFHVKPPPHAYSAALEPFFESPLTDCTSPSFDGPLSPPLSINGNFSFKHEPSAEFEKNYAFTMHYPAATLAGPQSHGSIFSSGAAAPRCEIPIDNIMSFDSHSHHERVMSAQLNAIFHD
# Experimental: as §1, §2, §3
# E47/NeuroD1 heterodimer [2] = target: T3, E47/NeuroD1 heterodimer (UniProt P15923-2;Q60867 P15923-2:1-651,Q60867:1-357); assay: EMSA; third of four; conditions: tags: TNT reticulocyte lysate; label: 32P
# T3 sequence (Q60867 whole entry, one chain of several): as above
# Experimental: as §1, §2, §3
# HNF3beta (FOXA2) [3] = target: T2, HNF3beta (FOXA2); assay: EMSA; high affinity; proximal and distal sites compete equally; conditions: tags: pGEM-1 ratHNF3beta, TNT lysate; label: 32P
# Excerpt: as §4
# E47/NeuroD1 heterodimer [4] = target: T3, E47/NeuroD1 heterodimer; assay: EMSA; strongest of four; conditions: tags: TNT reticulocyte lysate; label: 32P
# Experimental: as §1, §2, §3
# E47/NeuroD1 heterodimer [5] = target: T3, E47/NeuroD1 heterodimer; assay: EMSA; second strongest of four; conditions: tags: TNT reticulocyte lysate; label: 32P
# Experimental: as §1, §2, §3
binder,measurement,setting,value
B1,binding result,E47,binds
B2,binding result,HNF3beta (FOXA2) [1],binds
B3,binding result,NeuroD1,binds
same,binding result,E47,binds
same,binding result,E47/NeuroD1 heterodimer [2],binds
B4,binding result,HNF3beta (FOXA2) [3],binds
B5,binding result,E47,binds
same,binding result,E47/NeuroD1 heterodimer [4],binds
B6,binding result,E47,binds
same,binding result,E47/NeuroD1 heterodimer [5],binds
